{"source": "the domain aggregation screens of Martell et al. (2025)", "assay": "soluble fraction after stress (log2 fold change); higher = more stays soluble; pooled small domains, quantitative proteomics", "settings": "stress: pH 4", "procedure,_shortened": "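Aggregation propensity here comes from the fold change in the soluble amount of each small protein domain after acid stress, measured in pooled custom libraries by high-throughput quantitative proteomics. The acid stress was pH 4. On the log2 scale, higher values mean more of the domain stayed soluble.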"}
{"sequence": "HMQTTDTGAIETIVDELMAANPDKVEAYRGGKTGLQGFFMGQVMKQLGGQGNPKVISAIVTEKLE", "values": [{"measurement": "soluble fraction (log2)", "result": 0.257}]}
{"sequence": "HMQTTPAGHELLIRYFANGNIRERGMMKDGKRNGIWIFYDESGMEIRKTKYKMGKIISDYDLN", "values": [{"measurement": "soluble fraction (log2)", "result": 0.0593}]}
{"sequence": "HMQTTQQLIRNLRLKQAATLLADKRHSITEVATLTGFTHPTYFATAFREMFGVSPSEYMEQHI", "values": [{"measurement": "soluble fraction (log2)", "result": 0.126}]}
{"sequence": "HMQTYNQLKRGMTEWIQAGQKQKAYELFAGVAGQLSLSSAAGKKQYNELVTILNRAGFGIPLE", "values": [{"measurement": "soluble fraction (log2)", "result": "≥ 0.43"}]}
{"sequence": "HMQVEMVLSQEAHEWLLQRGFIPEYGAREMDRVIAAHLKPLLMREILFGTLKAGGKVRVQVENGALKLQP", "values": [{"measurement": "soluble fraction (log2)", "result": -1.74}]}
{"sequence": "HMQVLSESDVEDIKAISGGDKAYDNLMEWAGSKLSKQDAKDYDDVLATGNKTAITFAVKALMAQYENAN", "values": [{"measurement": "soluble fraction (log2)", "result": -1.05}]}
{"sequence": "HMQVPFGFQRNPSTGTLEEKAEEQLIINQVLSLKNSGIGVSEISKRLGELSVSRIYRIINTAKKNAS", "values": [{"measurement": "soluble fraction (log2)", "result": -0.107}]}
{"sequence": "HMQVSDANQLTDVVKSIIKQYPVEVEKYKSGKKALFGFFMGKVMENLKGKSNPKILKNVLTEILD", "values": [{"measurement": "soluble fraction (log2)", "result": 0.263}]}
{"sequence": "HMQVSDTNTLEQFAKEVIEANPKAVEDYHQNPLAIGFLVGQLMKVSKGSANPQTGKEILEKLL", "values": [{"measurement": "soluble fraction (log2)", "result": -0.185}]}
{"sequence": "HMQVSDVTTIRALVEEVLSSSPQQLAQYRAGKLSLKGYFVGQVMKKGKGQLNAAAVNNLLDEIL", "values": [{"measurement": "soluble fraction (log2)", "result": 0.36}]}
{"sequence": "HMQVSEQVQRLLDALENDTLTTKELMDRLGLKHRPTFRKNYLLPSMKLGLVEMTIPDKPNSSRQKYRRRQ", "values": [{"measurement": "soluble fraction (log2)", "result": 0.00707}]}
{"sequence": "HMQVTEVDYGTFMKMVEEKNVGEVEVGNSMIVFTDKDGKAIYKTGAMNDPNLTERLYNAGASFTKE", "values": [{"measurement": "soluble fraction (log2)", "result": -0.209}]}
{"sequence": "HMQVTGLTAENAHRVTMIREKGTDHPPVPFHFRKEHHGTGNYVHLYGNPEDRNELHSRDFKDWEAVAFK", "values": [{"measurement": "soluble fraction (log2)", "result": 0.319}]}
{"sequence": "HMQVVDWSQVDKEDYLLATKRRAVSTGELKFLLLNNLTYDLTQTRFFKGMDASYYYEGYNLYQTGE", "values": [{"measurement": "soluble fraction (log2)", "result": -0.693}]}
{"sequence": "HMQWGKVRRLPSGRYQASYVHKGTRYTAPETYTVQGRAHGWIESERRLIVTDTWTPPDTRPS", "values": [{"measurement": "soluble fraction (log2)", "result": -0.202}]}
{"sequence": "HMQWLDSIRSRLRVGQTISYFEPRENASSSGLIIELRRKRVLVLEIATQKRWLIEYAAINVDG", "values": [{"measurement": "soluble fraction (log2)", "result": -0.325}]}
{"sequence": "HMQWQPSEEAMQRLEQHGIPRAFSFSQLDAFVLQGQEQGSNRNDWNTRFFRFIKNQWVYAQN", "values": [{"measurement": "soluble fraction (log2)", "result": -1.17}]}
{"sequence": "HMQYDSYTVEEPAKLLDWLLAHLRQSRTKIKATLQGHGIKVNGKTVTQFDYPLEPGMKIRVSLTK", "values": [{"measurement": "soluble fraction (log2)", "result": -0.622}]}
{"sequence": "HMQYKTRVINLSILEVGMVLGRDLINKDGKIIVKKDVAISDFLKDHLIGLSKIKEIEPQIYIKV", "values": [{"measurement": "soluble fraction (log2)", "result": -0.452}]}
{"sequence": "HMQYSIQVNKLLKAMREDVWYTANEILDLLKLKSKETLRKNYLDPAINNKLIILELPDKPTSRNQRYKI", "values": [{"measurement": "soluble fraction (log2)", "result": -0.289}]}
{"sequence": "HMQYTQKTMYINDSYVNLRKSASTSSDIIMVVELNTKLTVIGEDGDWYKVKTSSGNAYVLKTLLSNEKKET", "values": [{"measurement": "soluble fraction (log2)", "result": -0.368}]}
{"sequence": "HMQYTTDEVRERVLSVLNQLLLRWIVREGKDMFNIQANAVEISEGIKGELNTELEKIGLAATGFQIDSV", "values": [{"measurement": "soluble fraction (log2)", "result": -0.678}]}
{"sequence": "HMRADRLISMLMLLQARGKITAEELAVELGVSQRTIYRDIEALSFAGVPVYAERGPGGGIGLLEPY", "values": [{"measurement": "soluble fraction (log2)", "result": -1.21}]}
{"sequence": "HMRAEPNSNYSLAIIYKNRYDIAVKKKDAVKEVEYGKMVYEYLNKYVVLSGNKSAKYKKILNYFSSY", "values": [{"measurement": "soluble fraction (log2)", "result": -0.445}]}
{"sequence": "HMRAFTPSEAQVAHARRVMEAFWQHQREGHGAFALDGKMVDAPIVKAAARVLARAGLQDPNHPIHLA", "values": [{"measurement": "soluble fraction (log2)", "result": 0.0106}]}
{"sequence": "HMRALPFSFANRHGVLIREISDGVAHAVYRIGSSPLGLAEARRFVGMPLMLTPVAREAFDSLLQQTYEQG", "values": [{"measurement": "soluble fraction (log2)", "result": -0.612}]}
{"sequence": "HMRAPEIEAARSDLDVGQTVQIVRHLHGNQYEVFYRGAQWQAEAVGSSGANDAQTAVITGKNGNILLIQI", "values": [{"measurement": "soluble fraction (log2)", "result": -0.297}]}
{"sequence": "HMRAVPTKLAPFVEVLKAMLEADGHRPKAQRRTAKALHLELISRGYAGGYTRLTDYIRDWRQQQG", "values": [{"measurement": "soluble fraction (log2)", "result": -0.411}]}
{"sequence": "HMRDANYFINPIHEWQKRYEALRASFVDRLPAQAVAQRFGYTITYIHLLRHQFKSGKIDFSEPVPEG", "values": [{"measurement": "soluble fraction (log2)", "result": -1.91}]}
{"sequence": "HMRDFTQPQTASIGPRMREALARGTMTVEELREQFRTQEFPHESVRTAFLEELERVAAELGLA", "values": [{"measurement": "soluble fraction (log2)", "result": -1.62}]}
{"sequence": "HMRDISTDTSAWTFQDIKRYYDPQDLLTEKQVGQALSLIKGRNLNPLLNEVYIVAYKKKNGGAEFSLIV", "values": [{"measurement": "soluble fraction (log2)", "result": -0.286}]}
